Experimental findings from US20250084453 are described below.

In series [1] the target is VCL (vinculin), endogenous in HEK293T cells (UniProt P18206).
The target of series [2] is BRD4, endogenous in HEK293T cells (UniProt O60885).
For series [3], the target named is BRD3, endogenous in HEK293T cells (UniProt Q15059).
The target of series [4] is translation termination factor GSPT1, endogenous in HEK293T cells (UniProt P15170).
Series [5] has as its target GLUL (glutamine synthetase), endogenous in HEK293T cells (UniProt P15104).
Another series concerns the target V5-tagged IKZF1 protein (UniProt Q13422).
Series [6] concerns the target translation termination factor GSPT2, endogenous in HEK293T cells (UniProt Q8IYD1).
In series [7] the target is BRD2, endogenous in HEK293T cells (UniProt P25440).
The target of series [8] is T1, RBM39 (RNA-Binding Motif Protein 39)/CAPERα, endogenous in HEK293T cells (UniProt Q14498).
T1 sequence: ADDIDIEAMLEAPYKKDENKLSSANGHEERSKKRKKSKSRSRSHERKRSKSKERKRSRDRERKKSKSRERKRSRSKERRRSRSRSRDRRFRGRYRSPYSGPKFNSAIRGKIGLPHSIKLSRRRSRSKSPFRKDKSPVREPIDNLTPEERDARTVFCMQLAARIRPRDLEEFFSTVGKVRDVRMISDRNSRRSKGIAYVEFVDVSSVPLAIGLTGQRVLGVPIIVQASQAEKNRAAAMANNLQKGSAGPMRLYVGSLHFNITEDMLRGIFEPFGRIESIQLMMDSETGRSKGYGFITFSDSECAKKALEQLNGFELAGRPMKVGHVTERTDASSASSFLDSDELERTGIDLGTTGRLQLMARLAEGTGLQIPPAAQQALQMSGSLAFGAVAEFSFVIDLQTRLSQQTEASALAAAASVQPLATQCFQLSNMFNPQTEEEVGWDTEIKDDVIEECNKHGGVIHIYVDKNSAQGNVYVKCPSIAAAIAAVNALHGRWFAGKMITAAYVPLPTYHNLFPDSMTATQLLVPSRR

For series [9], the target named is HIF1A, endogenous in HEK293T or A375 cells (UniProt Q16665).

Chain of translation termination factor GSPT2, endogenous in HEK293T cells (Q8IYD1 whole entry): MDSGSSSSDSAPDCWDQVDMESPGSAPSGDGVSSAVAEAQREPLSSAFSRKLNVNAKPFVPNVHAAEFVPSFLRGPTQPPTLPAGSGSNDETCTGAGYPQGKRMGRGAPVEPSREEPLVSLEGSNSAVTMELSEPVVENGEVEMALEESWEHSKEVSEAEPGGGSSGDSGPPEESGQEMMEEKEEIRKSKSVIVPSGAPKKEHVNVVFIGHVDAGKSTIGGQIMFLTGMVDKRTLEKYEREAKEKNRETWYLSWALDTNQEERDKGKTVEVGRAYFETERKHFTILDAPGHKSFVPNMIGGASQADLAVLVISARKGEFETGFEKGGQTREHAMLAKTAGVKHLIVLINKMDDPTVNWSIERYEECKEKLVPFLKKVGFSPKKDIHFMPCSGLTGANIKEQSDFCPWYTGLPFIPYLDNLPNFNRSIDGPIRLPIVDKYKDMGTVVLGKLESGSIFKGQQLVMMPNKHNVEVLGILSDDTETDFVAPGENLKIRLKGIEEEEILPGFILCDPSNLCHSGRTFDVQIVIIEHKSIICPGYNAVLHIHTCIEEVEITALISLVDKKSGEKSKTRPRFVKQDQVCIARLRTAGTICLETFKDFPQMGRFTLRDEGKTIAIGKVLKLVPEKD
Chain of VCL (vinculin), endogenous in HEK293T cells (P18206 other isoform, or with tags, fused parts or gaps): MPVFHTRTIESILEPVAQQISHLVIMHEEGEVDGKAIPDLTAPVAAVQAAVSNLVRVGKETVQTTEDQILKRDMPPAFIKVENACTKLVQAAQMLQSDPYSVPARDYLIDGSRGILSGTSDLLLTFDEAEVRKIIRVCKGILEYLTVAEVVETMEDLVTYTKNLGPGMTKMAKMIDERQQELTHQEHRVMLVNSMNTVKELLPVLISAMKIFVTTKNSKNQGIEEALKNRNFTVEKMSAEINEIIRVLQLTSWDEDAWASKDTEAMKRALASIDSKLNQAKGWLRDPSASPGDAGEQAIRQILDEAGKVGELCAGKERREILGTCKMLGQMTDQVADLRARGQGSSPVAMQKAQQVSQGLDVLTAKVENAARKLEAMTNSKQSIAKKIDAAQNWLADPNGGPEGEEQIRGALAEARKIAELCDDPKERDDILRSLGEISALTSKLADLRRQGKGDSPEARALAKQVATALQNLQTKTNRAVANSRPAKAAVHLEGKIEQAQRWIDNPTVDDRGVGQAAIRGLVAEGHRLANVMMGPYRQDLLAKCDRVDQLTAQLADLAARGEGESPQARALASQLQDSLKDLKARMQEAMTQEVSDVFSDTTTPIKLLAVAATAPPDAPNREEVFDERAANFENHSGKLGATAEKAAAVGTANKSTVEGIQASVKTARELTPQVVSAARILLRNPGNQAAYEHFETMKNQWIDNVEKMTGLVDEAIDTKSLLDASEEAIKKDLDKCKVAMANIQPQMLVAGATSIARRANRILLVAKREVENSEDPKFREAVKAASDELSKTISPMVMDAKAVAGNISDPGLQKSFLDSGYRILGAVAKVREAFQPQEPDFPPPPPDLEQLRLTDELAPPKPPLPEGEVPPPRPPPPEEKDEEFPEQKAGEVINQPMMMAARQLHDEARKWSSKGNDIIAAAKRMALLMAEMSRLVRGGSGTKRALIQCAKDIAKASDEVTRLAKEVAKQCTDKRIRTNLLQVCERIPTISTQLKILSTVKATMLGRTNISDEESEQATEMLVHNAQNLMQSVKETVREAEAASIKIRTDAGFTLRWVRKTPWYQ
Chain of V5-tagged IKZF1 protein (Q13422 whole entry, looked up): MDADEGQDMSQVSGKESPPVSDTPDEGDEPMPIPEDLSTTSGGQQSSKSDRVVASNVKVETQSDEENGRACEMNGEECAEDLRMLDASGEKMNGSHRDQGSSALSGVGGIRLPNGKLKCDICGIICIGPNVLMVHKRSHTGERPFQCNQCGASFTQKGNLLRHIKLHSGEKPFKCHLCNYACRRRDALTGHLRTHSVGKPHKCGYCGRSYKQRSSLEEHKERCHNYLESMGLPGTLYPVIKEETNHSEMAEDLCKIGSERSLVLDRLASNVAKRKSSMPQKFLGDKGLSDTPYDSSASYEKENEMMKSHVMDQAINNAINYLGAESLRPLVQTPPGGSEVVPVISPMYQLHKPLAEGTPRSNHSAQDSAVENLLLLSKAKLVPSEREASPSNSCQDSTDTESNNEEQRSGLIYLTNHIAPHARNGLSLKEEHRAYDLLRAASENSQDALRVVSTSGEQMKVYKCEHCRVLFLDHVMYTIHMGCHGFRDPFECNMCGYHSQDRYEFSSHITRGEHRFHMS
Chain of translation termination factor GSPT1, endogenous in HEK293T cells (P15170 whole entry): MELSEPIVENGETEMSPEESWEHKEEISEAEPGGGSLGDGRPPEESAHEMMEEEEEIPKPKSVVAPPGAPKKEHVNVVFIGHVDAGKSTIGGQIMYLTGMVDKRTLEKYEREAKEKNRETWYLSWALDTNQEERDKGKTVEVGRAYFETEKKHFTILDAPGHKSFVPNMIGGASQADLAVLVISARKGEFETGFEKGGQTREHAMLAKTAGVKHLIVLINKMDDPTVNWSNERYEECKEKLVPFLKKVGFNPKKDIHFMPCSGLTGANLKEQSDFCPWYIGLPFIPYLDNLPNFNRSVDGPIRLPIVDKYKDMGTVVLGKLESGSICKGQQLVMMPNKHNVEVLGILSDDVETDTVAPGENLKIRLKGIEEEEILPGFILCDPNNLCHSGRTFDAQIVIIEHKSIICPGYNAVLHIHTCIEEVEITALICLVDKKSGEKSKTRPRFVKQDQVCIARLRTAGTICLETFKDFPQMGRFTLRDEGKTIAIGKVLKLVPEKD
Chain of BRD3, endogenous in HEK293T cells (Q15059 2-726): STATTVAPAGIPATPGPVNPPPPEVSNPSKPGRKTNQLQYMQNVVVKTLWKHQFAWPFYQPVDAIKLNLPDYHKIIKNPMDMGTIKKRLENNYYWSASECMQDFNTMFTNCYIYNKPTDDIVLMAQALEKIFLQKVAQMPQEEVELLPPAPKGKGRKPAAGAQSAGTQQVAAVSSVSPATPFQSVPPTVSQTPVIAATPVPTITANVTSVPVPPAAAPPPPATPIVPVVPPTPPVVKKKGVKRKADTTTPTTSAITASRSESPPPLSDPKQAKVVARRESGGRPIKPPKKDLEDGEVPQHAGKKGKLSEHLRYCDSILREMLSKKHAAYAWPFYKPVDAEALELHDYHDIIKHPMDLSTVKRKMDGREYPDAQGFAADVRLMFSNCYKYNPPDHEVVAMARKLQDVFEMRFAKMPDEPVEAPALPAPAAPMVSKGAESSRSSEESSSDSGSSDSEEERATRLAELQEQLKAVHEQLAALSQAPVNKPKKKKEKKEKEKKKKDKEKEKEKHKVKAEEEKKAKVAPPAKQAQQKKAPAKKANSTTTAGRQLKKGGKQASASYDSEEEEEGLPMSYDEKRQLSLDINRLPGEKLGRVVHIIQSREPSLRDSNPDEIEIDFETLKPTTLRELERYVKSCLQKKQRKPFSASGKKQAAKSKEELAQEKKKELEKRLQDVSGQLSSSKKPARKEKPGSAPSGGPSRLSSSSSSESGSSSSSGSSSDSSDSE
Chain of BRD2, endogenous in HEK293T cells (P25440 whole entry, looked up): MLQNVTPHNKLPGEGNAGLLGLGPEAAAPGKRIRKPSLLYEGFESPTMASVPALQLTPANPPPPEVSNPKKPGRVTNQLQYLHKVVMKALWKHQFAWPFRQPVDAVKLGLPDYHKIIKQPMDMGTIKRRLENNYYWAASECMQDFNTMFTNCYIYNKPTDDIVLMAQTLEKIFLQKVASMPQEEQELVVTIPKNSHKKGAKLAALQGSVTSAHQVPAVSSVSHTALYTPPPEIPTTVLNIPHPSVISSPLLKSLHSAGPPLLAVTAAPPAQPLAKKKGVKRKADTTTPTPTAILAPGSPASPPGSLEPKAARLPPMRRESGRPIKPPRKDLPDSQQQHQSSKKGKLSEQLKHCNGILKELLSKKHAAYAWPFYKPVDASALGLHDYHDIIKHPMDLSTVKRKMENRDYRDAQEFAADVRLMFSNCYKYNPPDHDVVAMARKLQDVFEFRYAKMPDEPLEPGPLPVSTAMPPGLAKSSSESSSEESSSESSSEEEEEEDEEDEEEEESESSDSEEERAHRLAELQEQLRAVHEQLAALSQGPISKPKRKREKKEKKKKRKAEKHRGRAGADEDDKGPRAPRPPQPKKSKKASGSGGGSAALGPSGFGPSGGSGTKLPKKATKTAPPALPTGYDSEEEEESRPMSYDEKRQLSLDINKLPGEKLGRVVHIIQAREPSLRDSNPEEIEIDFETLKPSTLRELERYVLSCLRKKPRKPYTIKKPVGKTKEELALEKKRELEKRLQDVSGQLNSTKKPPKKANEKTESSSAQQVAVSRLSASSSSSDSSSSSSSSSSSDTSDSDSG
Chain of GLUL (glutamine synthetase), endogenous in HEK293T cells (P15104 2-373): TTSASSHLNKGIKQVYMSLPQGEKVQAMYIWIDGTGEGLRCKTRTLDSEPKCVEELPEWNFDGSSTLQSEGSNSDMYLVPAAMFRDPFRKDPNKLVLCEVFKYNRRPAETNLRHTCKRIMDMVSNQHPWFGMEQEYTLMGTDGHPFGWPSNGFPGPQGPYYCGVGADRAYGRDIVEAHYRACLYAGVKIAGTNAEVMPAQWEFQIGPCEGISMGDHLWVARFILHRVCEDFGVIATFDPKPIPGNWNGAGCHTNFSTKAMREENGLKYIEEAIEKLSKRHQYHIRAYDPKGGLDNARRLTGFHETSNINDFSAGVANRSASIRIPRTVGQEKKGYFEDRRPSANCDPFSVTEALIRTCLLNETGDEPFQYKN

For the substance “CRBN E3 ligase fused at its carboxy terminus to E. coli wild-type BirA biotin ligase (CRBN-BirA)”, the “biotinylation in streptavidin pulldown (MS, A3-HA-Ub, CC-885 1 µM), WT CRBN-BirA against loss-of-function mutants” value (“biotinylation … against loss-of-function mutants” below) in series [1] was “substrates GSPT1, GSPT2, VCL and CSNK1A1 were identified”. The “differential enrichment in streptavidin pulldown (MS, triplicates, A3-HA-Ub), PROTAC dBET6 (1 µM) against DMSO” value in series [2] is “CRBN-BirA; ubiquitinated substrates BRD2, BRD3, BRD4 observed in the upper right portion of the top left volcano plot”. Also, in series [3], the “differential enrichment in streptavidin pulldown (MS, triplicates, A3-HA-Ub), PROTAC dBET6 (1 µM) against DMSO” value is “CRBN-BirA; ubiquitinated substrates BRD2, BRD3, BRD4 observed in the upper right portion of the top left volcano plot”. In series [4], this substance registered a # of PSMs in streptavidin pulldown (MS), A3-Ub, CC-885 of 30 PSMs; a # of PSMs in streptavidin pulldown (MS), A3-Ub, DMSO of 0 PSMs; a # of PSMs in streptavidin pulldown (MS), Avi-Ub, CC-885 of 25 PSMs; a # of PSMs in streptavidin pulldown (MS), Avi-Ub, DMSO of 0 PSMs. Moreover, in series [4], the “biotinylated, ubiquitinated endogenous GSPT1 in streptavidin pulldown (Western blot, Avi-HA-Ub), with CC-885 (1 µM)” value was “mono- and poly-ubiquitinated GSPT1 captured by the streptavidin beads were only observed in conditions where CC-885 was present”; the “biotinylation … against loss-of-function mutants” value is “substrates GSPT1, GSPT2, VCL and CSNK1A1 were identified”; the “differential enrichment in streptavidin pulldown (MS, triplicates, A3-Ub), CC-885 against DMSO” value was “GSPT1 and GSPT2 are observed to be the most upregulated proteins, both by amount and by statistical significance”; the “sensitivity in detecting CC-885-induced ubiquitination of GSPT1 by CRBN (Western blot quantification), A3-tag” value is “when comparing A3-tag to Avi-tag (36.39 to 15.46, respectively)”. Further, in series [4], the “sensitivity in detecting CC-885-induced ubiquitination of GSPT1 by CRBN (Western blot quantification), Avi-tag” value is recorded as “when comparing A3-tag to Avi-tag (36.39 to 15.46, respectively)” and the “ubiquitinated GSPT1 captured by streptavidin beads (Western blot quantification, Avi-HA-Ub), CC-885 against DMSO” value is listed as 6-12 fold more ubiquitinated GSPT1 was captured by the streptavidin beads. For the same substance, the “proteins differentially biotinylated, VHL-BirA against CRBN-BirA (MS, triplicates, A3-tagged ubiquitin, HEK293T)” value in series [5] is “Other identified proteins included GLUL, which is a reported a CRBN substrate”. In the series with V5-tagged IKZF1 protein, the “biotinylated, ubiquitinated V5-IKZF1 in streptavidin bead eluates (Western blot), Avi-Ub or A3-Ub, with pomalidomide (1 µM)” value is on record as “both substrate peptide-tagged ubiquitin variants showed pomalidomide-induced ubiquitination of IKZF1 by E3 ligase CRBN”; the “biotinylated, ubiquitinated V5-IKZF1 in streptavidin pulldown (Western blot, Avi-HA-Ub), with pomalidomide (1 µM)” value was “in conditions where pomalidomide was present, an increased amount of mono- and poly-ubiquitinated V5-IKZF1 was captured by the streptavidin beads”; the “sensitivity in detecting pomalidomide-induced ubiquitination of V5-IKZF1 (Western blot quantification), A3-tagged ubiquitin” value is 17.76 to 5.58 when comparing A3 to Avi; the “sensitivity in detecting pomalidomide-induced ubiquitination of V5-IKZF1 (Western blot quantification), Avi-tagged ubiquitin” value was 17.76 to 5.58 when comparing A3 to Avi. In the series with V5-tagged IKZF1 protein, the “ubiquitinated V5-IKZF1 captured by streptavidin beads (Western blot quantification, Avi-HA-Ub), pomalidomide against DMSO” value was “approximately 3.9-fold more ubiquitinated V5-IKZF1 substrate was captured by the streptavidin beads”. In [6], the # of PSMs in streptavidin pulldown (MS), A3-Ub, CC-885 is 20 PSMs; the # of PSMs in streptavidin pulldown (MS), A3-Ub, DMSO was found to be 0 PSMs; the # of PSMs in streptavidin pulldown (MS), Avi-Ub, CC-885 was 13 PSMs; the # of PSMs in streptavidin pulldown (MS), Avi-Ub, DMSO was found to be 0 PSMs. For the same substance, in [6], the “biotinylation … against loss-of-function mutants” value was “substrates GSPT1, GSPT2, VCL and CSNK1A1 were identified”; the “differential enrichment in streptavidin pulldown (MS, triplicates, A3-Ub), CC-885 against DMSO” value is “GSPT1 and GSPT2 are observed to be the most upregulated proteins, both by amount and by statistical significance”. Besides, the “differential enrichment in streptavidin pulldown (MS, triplicates, A3-HA-Ub), PROTAC dBET6 (1 µM) against DMSO” value in [7] is listed as “CRBN-BirA; ubiquitinated substrates BRD2, BRD3, BRD4 observed in the upper right portion of the top left volcano plot”.
Consider CRBN-BirA mutant D249Y, for which the “biotinylation in streptavidin pulldown (MS, A3-HA-Ub, CC-885 1 µM), D249Y mutant against WT CRBN-BirA” value in series [1], in [4] and in series [6] was “a decrease in biotinylation by the loss-of-function CRBN-BirA mutants” each time.
As to CRBN-BirA mutant W386A, the “biotinylation in streptavidin pulldown (MS, A3-HA-Ub, CC-885 1 µM), W386A mutant against WT CRBN-BirA” value in series [1], in [4] and in series [6] was “a decrease in biotinylation by the loss-of-function CRBN-BirA mutants” each time.
In the case of “DCAF15 fused to BirA biotin ligase (DCAF15-BirA)”, the “differential enrichment in streptavidin pulldown (MS, triplicates, A3-HA-Ub), E7820 (10 µM) against DMSO” value in series [8] was “the induced ubiquitinated substrate RBM39/CAPERα was produced as a result of the use of the E7820 molecular glue in conjunction with DCAF15-BirA and associated CRL4 E3 ligase”.
In the case of “VHL E3 ligase fused to E. coli wild-type BirA biotin ligase (VHL-BirA)”, the “differential enrichment in streptavidin pulldown (MS, triplicates, A3-HA-Ub), PROTAC ARV-771 (1 µM) against DMSO” value is “VHL-BirA; ubiquitinated substrates BRD2, BRD3, BRD4 observed in the upper right portion of the top right volcano plot” in [2]; “VHL-BirA; ubiquitinated substrates BRD2, BRD3, BRD4 observed in the upper right portion of the top right volcano plot” in series [3]; “VHL-BirA; ubiquitinated substrates BRD2, BRD3, BRD4 observed in the upper right portion of the top right volcano plot” in series [7]. The “proteins differentially biotinylated by VHL-BirA against CRBN-BirA (MS, triplicates, A3-tagged ubiquitin, HEK293T)” value in series [9] was “One of the best known VHL substrates, HIF1A was among the hits of differentially biotinylated proteins by VHL-BirA”.
